Key:
[1] = molecular target: T1, Human LILRB2 on stably transduced HEK293T cells (human, UniProt Q8N423 22-597); assay: flow cytometry, HEK293T cells stably expressing human LILRB2
T1 construct: Lentiviral transduction (G&P Biosciences LTV2992); also called HEK293T-LILRB2; LILRB2-expressing HEK293T cells
Experimental: To confirm binding of LILRB2 antibodies, flow cytometry binding assays were performed using HEK293T cells stably expressing human LILRB2 (Example 3). […] The B2A-IgG1 and B2A-IgG4 chimeras bound the LILRB2-expressing HEK293T cells, with equivalent EC₅₀ values of 0.21 nM and 0.30 nM respectively.

[2] = molecular target: T2, Human LILRA2 on transiently transfected HEK293-6E cells (human, UniProt Q8N149 24-483); assay: flow cytometry, transiently transfected HEK293-6E cells
T2 construct: whole, on cells; also called hLILRA2
T2 sequence (Q8N149 24-483): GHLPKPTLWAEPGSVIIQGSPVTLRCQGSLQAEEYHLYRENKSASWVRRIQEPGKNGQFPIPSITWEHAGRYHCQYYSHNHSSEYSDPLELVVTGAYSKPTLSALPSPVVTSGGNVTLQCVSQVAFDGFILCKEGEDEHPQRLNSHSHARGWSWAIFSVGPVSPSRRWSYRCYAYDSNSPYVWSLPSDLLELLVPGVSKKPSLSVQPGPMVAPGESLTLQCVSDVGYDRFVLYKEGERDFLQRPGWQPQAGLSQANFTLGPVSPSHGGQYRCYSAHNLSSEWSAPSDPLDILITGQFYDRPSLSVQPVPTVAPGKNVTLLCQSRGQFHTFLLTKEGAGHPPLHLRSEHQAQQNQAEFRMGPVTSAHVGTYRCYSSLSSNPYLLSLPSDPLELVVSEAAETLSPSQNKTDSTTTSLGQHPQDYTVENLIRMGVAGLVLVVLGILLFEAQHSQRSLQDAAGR
Experimental: (§1) To determine that the anti-LILRB2 antibodies specifically bind to LILRB2 and not other LILRB and LILRA family members, a cross-reactivity assay was performed. Cross-reactivity of the LILRB2 antibodies to other LILRB proteins was assessed by antibody binding to transiently transfected HEK293-6E cells, measured by flow cytometry. Binding was evaluated to HEK293-6E cells transiently transfected with human LILRB-1, -2, -3, -4, and 5 plasmids (Origene, Nos. RC219949, RC217935, RC211228, RC220932, RC206516) or to cells transiently transfected with human LILRA-1, -2, -4, -5, and -6 plasmids (Origene, Nos. RC210808, RC205626, RC220452, RC212310 RC212965). […] Murine primary antibodies to LILRA and LILRB targets and corresponding isotype controls were used to confirm specific binding of all targets tested (R&D Systems) while an AF647 F(ab′)₂ fragment goat anti-mouse antibody (Jackson ImmunoResearch, No. 115-606-062) was used for the detection of bound positive control antibodies. No binding of B2A-IgG4 or B2A-IgG1 to LILRB-1, -3, -4, or -5 was observed, and no binding of either antibody to LILRA-1, -2, -4, -5, or -6 was observed, confirming specificity of these antibodies.

[3] = molecular target: T3, Human LILRA6 on transiently transfected HEK293-6E cells (human, UniProt Q6PI73 24-481); assay: as above
T3 construct: whole, on cells; also called hLILRA6
T3 sequence (Q6PI73 24-481): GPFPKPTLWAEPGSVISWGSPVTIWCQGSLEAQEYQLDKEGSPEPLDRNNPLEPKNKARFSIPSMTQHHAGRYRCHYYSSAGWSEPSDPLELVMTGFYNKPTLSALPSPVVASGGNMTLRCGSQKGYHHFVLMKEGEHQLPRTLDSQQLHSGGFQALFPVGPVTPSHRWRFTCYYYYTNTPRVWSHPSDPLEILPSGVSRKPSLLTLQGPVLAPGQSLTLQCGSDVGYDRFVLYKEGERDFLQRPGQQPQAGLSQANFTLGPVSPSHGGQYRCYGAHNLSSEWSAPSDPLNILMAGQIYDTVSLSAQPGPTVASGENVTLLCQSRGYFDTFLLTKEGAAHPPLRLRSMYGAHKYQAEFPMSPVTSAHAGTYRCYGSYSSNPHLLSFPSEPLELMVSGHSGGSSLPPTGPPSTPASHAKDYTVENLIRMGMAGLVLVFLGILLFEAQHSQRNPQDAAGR
Experimental: as §1

[4] = molecular target: T4, Human LILRB4 on transiently transfected HEK293-6E cells (human, UniProt Q8NHJ6 22-448); assay: as above
T4 construct: whole, on cells; also called hLILRB4
Experimental: as §1

[5] = molecular target: T5, Human LILRA4 on transiently transfected HEK293-6E cells (human, UniProt P59901 24-499); assay: as above
T5 construct: whole, on cells; also called hLILRA4
T5 sequence (P59901 24-499): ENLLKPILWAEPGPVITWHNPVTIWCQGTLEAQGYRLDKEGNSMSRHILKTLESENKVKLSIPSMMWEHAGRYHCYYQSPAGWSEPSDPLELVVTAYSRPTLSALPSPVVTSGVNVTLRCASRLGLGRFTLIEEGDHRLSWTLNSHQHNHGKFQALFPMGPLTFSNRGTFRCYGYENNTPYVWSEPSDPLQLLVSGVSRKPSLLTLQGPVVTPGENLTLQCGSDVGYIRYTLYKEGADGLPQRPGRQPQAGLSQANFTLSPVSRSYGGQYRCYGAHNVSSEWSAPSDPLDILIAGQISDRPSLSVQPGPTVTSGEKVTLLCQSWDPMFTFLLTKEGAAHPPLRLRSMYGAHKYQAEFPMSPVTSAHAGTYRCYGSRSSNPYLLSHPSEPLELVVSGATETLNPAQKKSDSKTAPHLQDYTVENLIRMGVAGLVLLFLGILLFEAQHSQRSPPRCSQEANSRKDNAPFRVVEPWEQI
Experimental: as §1

[6] = molecular target: T6, Human LILRA1 on transiently transfected HEK293-6E cells (human, UniProt O75019 17-489); assay: as above
T6 construct: whole, on cells; also called hLILRA1
T6 sequence (O75019 17-489): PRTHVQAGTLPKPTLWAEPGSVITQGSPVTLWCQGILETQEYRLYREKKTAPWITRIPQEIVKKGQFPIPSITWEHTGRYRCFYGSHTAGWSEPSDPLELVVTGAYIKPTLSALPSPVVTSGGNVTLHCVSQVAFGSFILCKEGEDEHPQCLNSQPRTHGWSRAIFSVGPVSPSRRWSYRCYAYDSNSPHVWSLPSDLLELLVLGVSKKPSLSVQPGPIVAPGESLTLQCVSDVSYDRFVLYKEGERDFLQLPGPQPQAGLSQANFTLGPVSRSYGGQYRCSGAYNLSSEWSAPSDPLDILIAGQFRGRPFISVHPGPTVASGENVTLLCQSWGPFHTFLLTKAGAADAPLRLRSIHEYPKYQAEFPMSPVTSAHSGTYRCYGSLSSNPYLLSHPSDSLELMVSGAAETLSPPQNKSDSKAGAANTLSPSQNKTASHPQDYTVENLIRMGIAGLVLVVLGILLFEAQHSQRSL
Experimental: as §1

[7] = molecular target: T7, Human LILRB2 on transiently transfected HEK293-6E cells (human, UniProt Q8N423 22-597); assay: as above
T7 construct: whole, on cells; also called hLILRB2
T7 sequence (Q8N423 22-597): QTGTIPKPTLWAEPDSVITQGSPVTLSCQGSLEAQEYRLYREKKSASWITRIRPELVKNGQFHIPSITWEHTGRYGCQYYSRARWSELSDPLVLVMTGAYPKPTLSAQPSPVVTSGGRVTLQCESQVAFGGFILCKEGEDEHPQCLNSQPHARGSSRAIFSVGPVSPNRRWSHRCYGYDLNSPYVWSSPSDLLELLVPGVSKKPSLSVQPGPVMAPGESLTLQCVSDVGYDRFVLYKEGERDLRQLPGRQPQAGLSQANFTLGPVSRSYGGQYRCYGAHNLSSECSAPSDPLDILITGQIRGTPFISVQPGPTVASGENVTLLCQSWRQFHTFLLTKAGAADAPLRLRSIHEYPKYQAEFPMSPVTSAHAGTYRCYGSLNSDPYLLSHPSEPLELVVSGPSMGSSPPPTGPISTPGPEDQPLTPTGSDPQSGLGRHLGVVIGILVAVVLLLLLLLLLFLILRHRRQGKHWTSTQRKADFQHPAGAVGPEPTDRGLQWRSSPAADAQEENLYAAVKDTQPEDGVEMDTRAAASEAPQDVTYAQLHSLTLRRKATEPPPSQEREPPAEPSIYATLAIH
Experimental: as §1

[8] = molecular target: T8, Human LILRA5 on transiently transfected HEK293-6E cells (human, UniProt A6NI73 42-299); assay: as above
T8 construct: whole, on cells; also called hLILRA5
T8 sequence (A6NI73 42-299): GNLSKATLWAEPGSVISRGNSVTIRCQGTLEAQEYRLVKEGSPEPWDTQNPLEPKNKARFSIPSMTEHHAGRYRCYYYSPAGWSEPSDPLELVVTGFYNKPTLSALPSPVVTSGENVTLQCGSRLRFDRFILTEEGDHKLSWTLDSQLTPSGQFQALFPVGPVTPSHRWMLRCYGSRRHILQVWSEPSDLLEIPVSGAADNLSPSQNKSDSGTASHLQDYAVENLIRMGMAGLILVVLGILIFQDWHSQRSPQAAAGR
Experimental: as §1

[9] = molecular target: T9, Human LILRB5 on transiently transfected HEK293-6E cells (human, UniProt O75023 24-590); assay: as above
T9 construct: whole, on cells; also called hLILRB5
T9 sequence (O75023 24-590): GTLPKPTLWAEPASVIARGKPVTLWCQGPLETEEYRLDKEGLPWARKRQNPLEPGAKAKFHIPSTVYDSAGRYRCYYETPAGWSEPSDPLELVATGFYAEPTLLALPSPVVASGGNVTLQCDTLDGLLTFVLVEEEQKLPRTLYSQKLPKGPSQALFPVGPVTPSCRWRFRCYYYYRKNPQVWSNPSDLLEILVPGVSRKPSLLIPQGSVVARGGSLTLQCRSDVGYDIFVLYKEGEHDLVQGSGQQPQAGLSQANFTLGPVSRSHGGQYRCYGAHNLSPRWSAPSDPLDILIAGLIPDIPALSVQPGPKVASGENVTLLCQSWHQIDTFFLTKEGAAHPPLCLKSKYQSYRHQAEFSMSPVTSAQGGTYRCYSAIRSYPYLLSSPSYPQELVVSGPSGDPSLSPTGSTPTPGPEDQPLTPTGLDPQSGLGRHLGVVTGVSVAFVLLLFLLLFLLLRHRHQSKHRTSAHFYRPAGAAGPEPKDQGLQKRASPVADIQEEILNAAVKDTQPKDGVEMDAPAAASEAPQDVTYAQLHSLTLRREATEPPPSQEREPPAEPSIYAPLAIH
Experimental: as §1

[10] = molecular target: T10, Human LILRB3 on transiently transfected HEK293-6E cells (human, UniProt O75022 24-631); assay: as above
T10 construct: whole, on cells; also called hLILRB3
Experimental: as §1

[11] = molecular target: T4, Human LILRB4 on transiently transfected …; assay: as above; remark: listed apart in the source
Experimental: as §1
Select humanized variant antibodies were tested for their ability to bind other LILRB or LILRA family members, using the method and commercially available positive control antibodies of Example 5.

[12] = molecular target: T2, Human LILRA2 on transiently transfected …; assay: as above; remark: listed apart in the source
[13] = molecular target: T11, Human LILRB1 on transiently transfected HEK293-6E cells (human, UniProt Q8NHL6 24-650); assay: as above
T11 construct: whole, on cells; also called hLILRB1
T11 sequence (Q8NHL6 24-650): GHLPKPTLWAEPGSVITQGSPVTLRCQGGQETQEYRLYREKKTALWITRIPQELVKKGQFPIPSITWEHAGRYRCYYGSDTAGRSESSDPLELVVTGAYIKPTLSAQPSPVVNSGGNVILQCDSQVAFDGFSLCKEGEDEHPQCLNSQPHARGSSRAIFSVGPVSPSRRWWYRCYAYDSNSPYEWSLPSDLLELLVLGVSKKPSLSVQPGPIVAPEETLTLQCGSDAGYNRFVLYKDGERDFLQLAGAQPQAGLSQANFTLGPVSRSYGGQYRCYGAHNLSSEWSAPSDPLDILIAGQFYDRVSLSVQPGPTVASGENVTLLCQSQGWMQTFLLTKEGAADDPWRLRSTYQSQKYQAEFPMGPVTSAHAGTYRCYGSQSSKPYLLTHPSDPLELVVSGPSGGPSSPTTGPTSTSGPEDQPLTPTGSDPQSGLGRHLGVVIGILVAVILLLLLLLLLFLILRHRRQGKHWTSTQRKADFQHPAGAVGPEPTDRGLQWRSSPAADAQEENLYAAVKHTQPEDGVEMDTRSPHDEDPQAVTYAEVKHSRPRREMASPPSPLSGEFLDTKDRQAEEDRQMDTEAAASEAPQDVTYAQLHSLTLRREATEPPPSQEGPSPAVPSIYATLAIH

[14] = molecular target: T3, Human LILRA6 on transiently transfected …; assay: as above; remark: listed apart in the source
[15] = molecular target: T4, Human LILRB4 on transiently transfected …; assay: as above; remark: listed apart in the source
[16] = molecular target: T5, Human LILRA4 on transiently transfected …; assay: as above; remark: listed apart in the source
[17] = molecular target: T6, Human LILRA1 on transiently transfected …; assay: as above; remark: listed apart in the source
[18] = molecular target: T8, Human LILRA5 on transiently transfected …; assay: as above; remark: listed apart in the source
[19] = molecular target: T9, Human LILRB5 on transiently transfected …; assay: as above; remark: listed apart in the source
[20] = molecular target: T10, Human LILRB3 on transiently transfected …; assay: as above; remark: listed apart in the source

T1 sequence (Q8N423 other isoform, or with tags, fused parts or gaps limits assumed): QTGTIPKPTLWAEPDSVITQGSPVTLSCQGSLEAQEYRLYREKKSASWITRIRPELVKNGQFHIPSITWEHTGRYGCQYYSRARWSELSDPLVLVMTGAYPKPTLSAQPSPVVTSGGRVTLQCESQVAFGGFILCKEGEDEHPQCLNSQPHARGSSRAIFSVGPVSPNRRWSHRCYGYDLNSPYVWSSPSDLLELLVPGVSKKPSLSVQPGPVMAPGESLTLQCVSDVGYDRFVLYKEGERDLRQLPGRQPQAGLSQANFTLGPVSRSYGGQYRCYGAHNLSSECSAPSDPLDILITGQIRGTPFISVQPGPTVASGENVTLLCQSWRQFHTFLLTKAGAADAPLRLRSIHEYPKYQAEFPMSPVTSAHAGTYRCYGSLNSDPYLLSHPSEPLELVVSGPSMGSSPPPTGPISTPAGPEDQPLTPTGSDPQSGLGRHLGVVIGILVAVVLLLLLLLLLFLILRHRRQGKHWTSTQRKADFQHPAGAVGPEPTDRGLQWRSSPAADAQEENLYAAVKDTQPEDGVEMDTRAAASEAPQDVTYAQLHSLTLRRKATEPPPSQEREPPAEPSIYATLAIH

EC50 [1] | MFI [2] | MFI [3] | MFI [4] | MFI [5] | MFI [6] | MFI [7] | MFI [8] | MFI [9] | MFI [10] | Bmax (MFI) [11] | binding result [12] | binding result [13] | binding result [14] | binding result [15] | binding result [16] | binding result [17] | binding result [18] | binding result [19] | binding result [20] | Binder
0.21 nM | 38 MFI | 223 MFI | 40 MFI | 116 MFI | 898 MFI | 11300 MFI | 127 MFI | 147 MFI | 163 MFI | 41.4 MFI | no binding | no binding | no binding | no binding | no binding | no binding | no binding | no binding | no binding | B2A-IgG1 (antibody, Rabbit variable regions on human IgG1 / kappa constant regions; AF647-conjugated in some flow assays; also called B2A-IgG1 chimera; anti-LILRB2 B2A-IgG1) heavy: not shown light: DVVMTQTPSSVSAALGGTVTIKCQASQSIGSNLAWYQLKPGQRPKLLIYAAATLASGGSSRFKGSGSGTDFTLTISDLECADAATYYCQSYVSGSSDVAFGGGTEVVVKRTVAAPSVFIFPPSDEQLKSGTASVVCLLNNFYPREAKVQWKVDNALQSGNSQESVTEQDSKDSTYSLSSTLTLSKADYEKHKVYACEVTHQGLSSPVTKSFNRGEC
0.3 nM | 31 MFI | 22 MFI | 20 MFI | 30 MFI | 73 MFI | 1160 MFI | 21 MFI | 21 MFI | 22 MFI |  | no binding | no binding | no binding | no binding | no binding | no binding | no binding | no binding | no binding | B2A-IgG4 (antibody, Rabbit variable regions on human IgG4 / kappa constant regions; also called B2A-IgG4 chimera; Parent B2A-IgG4) heavy: not shown light: DVVMTQTPSSVSAALGGTVTIKCQASQSIGSNLAWYQLKPGQRPKLLIYAAATLASGGSSRFKGSGSGTDFTLTISDLECADAATYYCQSYVSGSSDVAFGGGTEVVVKRTVAAPSVFIFPPSDEQLKSGTASVVCLLNNFYPREAKVQWKVDNALQSGNSQESVTEQDSKDSTYSLSSTLTLSKADYEKHKVYACEVTHQGLSSPVTKSFNRGEC
 |  |  |  |  |  |  |  |  |  | 40.3 MFI | no binding | no binding | no binding | no binding | no binding | no binding | no binding | no binding | no binding | B2H1-55 (antibody, V domains shown, Humanized variant, human IgG1 / kappa; also called humanized variant B2H1-55; humanized LILRB2 antibody B2H1-55) VH: EVQLLESGGGLVQPGTSLTLSCAASGFSLSTYAMSWVRQAPGKGLEWIGWIYNDGSTYYAAWAKGRFTISKDTSKTTLYLQITSLRAEDTATYFCAREGDYIGYFNIWGQGTLVTVSS VL: DVVMTQTPSSVSAALGGTVTIKCQASQSIGSNLAWYQLKPGQRPKLLIYAAATLASGGSSRFKGSGSGTDFTLTISSLEPADAATYYCQSYVSGSSDVAFGGGTEVVVK

Reference: patent publication US20240132589A1 (ONCORESPONSE, published 2024)
